Assay [1] has as its target T1, human CXCR5 (human, UniProt P32302 1-372).
T1 sequence: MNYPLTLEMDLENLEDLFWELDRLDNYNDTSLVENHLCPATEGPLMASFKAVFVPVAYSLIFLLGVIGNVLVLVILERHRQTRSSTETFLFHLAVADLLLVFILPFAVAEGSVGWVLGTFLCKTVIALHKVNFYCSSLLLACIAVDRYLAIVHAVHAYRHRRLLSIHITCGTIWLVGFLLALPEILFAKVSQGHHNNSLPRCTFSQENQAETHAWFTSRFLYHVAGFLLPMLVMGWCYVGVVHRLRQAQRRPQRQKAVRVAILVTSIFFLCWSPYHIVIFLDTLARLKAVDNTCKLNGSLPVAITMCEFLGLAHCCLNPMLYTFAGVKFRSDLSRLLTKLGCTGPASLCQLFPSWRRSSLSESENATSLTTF
Briefly: cell-based or functional assay.

In assay [2] the target is T2, cynomolgus monkey CXCR5 (cynomolgus monkey, UniProt P32302 1-372 (human entry)).
T2 chain: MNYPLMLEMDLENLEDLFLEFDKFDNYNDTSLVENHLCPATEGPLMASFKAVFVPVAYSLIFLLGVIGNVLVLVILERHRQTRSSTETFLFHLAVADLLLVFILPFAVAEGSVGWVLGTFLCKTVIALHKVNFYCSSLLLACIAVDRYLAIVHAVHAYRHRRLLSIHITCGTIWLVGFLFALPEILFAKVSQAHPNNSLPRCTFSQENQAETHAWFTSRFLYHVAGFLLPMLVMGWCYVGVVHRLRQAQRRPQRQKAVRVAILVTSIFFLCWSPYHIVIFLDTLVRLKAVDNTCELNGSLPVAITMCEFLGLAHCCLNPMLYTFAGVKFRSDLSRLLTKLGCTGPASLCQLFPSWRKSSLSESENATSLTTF
Put plainly: cell-based or functional assay.

The target in assay [3] is T1, human CXCR5. Briefly: flow cytometry, human PBMC B cells. The method, boiled down:
(§1)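 Human and cynomolgus PBMCs stained with 4-fold serial antibody dilutions (11 points from 5000 ng/mL) plus Fc block, 2 h on ice, then lineage markers and anti-human Ig secondary 30 min at 4 °C. gMFI of binding population read by flow cytometry; EC50 from sigmoidal fit of equilibrium binding curves.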

For assay [4], the target named is T2, cynomolgus monkey CXCR5. Put plainly: flow cytometry, cynomolgus PBMC B cells. The method, boiled down: as §1
On the technique in general: In flow cytometry, cells or beads pass a laser one at a time.

Assay [5] has as its target T1, human CXCR5. Put plainly: FACS on cells expressing the CXCR5 construct.
The target of assay [6] is T3, mouse CXCR5 (mouse, UniProt Q04683 1-374).
T3 construct: also called mCXCR5
T3 sequence: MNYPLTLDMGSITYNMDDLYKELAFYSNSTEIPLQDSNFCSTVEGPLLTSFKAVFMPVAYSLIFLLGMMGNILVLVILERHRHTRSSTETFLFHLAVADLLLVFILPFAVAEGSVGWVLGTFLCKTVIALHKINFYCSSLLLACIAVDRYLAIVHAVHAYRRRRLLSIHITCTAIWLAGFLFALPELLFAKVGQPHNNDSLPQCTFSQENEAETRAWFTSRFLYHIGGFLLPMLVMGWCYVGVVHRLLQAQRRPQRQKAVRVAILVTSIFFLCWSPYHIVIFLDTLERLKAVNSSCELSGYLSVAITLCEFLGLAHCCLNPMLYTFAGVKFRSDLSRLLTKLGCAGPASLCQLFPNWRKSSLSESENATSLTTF
Briefly: FACS on cells expressing the CXCR5 construct.

Assay [7] addresses T4, XC251.
T4 construct: whole, on cells; also called hCXCR5-mL3
Briefly: FACS on cells expressing the CXCR5 construct.

For assay [8], the target named is T5, XC252.
T5 construct: whole, on cells; also called hCXCR5-mL2
Briefly: FACS on cells expressing the CXCR5 construct.

In assay [9] the target is T6, XC253.
T6 construct: whole, on cells; also called hCXCR5-mN
Put plainly: FACS on cells expressing the CXCR5 construct.

The target in assay [10] is T7, XC254.
T7 construct: whole, on cells; also called hCXCR5-mL2-mL3
Briefly: FACS on cells expressing the CXCR5 construct.

For assay [11], the target named is T8, XC255.
T8 construct: whole, on cells; also called hCXCR5-mN-mL3
Put plainly: FACS on cells expressing the CXCR5 construct.

Assay [12] deals with T9, XC256.
T9 construct: whole, on cells; also called hCXCR5-mN-mL2
Briefly: FACS on cells expressing the CXCR5 construct.

B1: Chimeric 11G2 (antibody, human IgG1, kappa, V domains shown)
VH: EVKLVESGGGLVQPGGSLRLSCATSGFTFTDFYMSWVRQPPGRALEWLGFIRNKANGYTTEYSASVKGRFTISRDNSQSILYLQMNTLRAGDSATYYCVRVYGSTLHYWGQGTILTVSS
VL: DVVVTQSPDSLAVSLGQRATISCRASESVEYHGTSLMHWYQQKPGQPPKLLIYAASNVESGVPARFSGSGSGTDFSLNIHPVEEGDIAMYFCQQSRKVPWTFGGGTKLEIKR
notes: mouse V regions on human IgG1/kappa; also called 11G2 (chimeric)
Usually EC50 stands for the concentration at which the effect is half-maximal. Turning to B1, in assay [1], the “ADCC Activity Average EC50, Human B Cells” value amounted to 564 pM and the “ADCC Activity Average EC50, Human Tfh Cells” value is 1.55 pM. The “ADCC Activity Average EC50, NHP B Cells” value in assay [2] stood at 115 pM. This molecule came in with an EC50 in [3] of 17.9 pM. It took 6.95 pM to reach a half-maximal effect in [4] (EC50).

B2: Afucosyl humanized 11G2 154/155 (antibody, human IgG1, kappa, V domains shown)
VH: EVQLVESGGGLVQPGGSLRLSCAASGFTFTDFYMSWVRQAPGKGLEWVGFIRNKANGYTTEYSASVKGRFTISRDNAKNSLYLQMNSLRAEDTAVYYCARVYGSTLHYWGQGTLVTVSS
VL: DIQMTQSPSSLSASVGDRVTITCRASESVEYHGTSLMHWYQQKPGKAPKLLIYAASNVESGVPSRFSGSGSGTDFTLTISSLQPEDFATYYCQQSRKVPWTFGQGTKVEIKR
modifications: afucosylated Fc glycan (Asn297)
notes: also called afucosyl h11G2 XC154/XC155; afucosylated h11G2 VL XC154/VH XC155
Consider B2, for which the “ADCC Activity Average EC50, Human B Cells” value in assay [1] amounted to 2.01 pM. Moreover, the “ADCC Activity Average EC50, Human Tfh Cells” value in assay [1] was 0.11 pM. For the same molecule, the “ADCC Activity Average EC50, Human Tfh-like Cells” value in [1] was 4.82 pM. Also, in assay [2], the “ADCC Activity Average EC50, NHP B Cells” value stood at 15.3 pM. The EC50 stood at 6.6 pM in assay [3] and 1.32 pM in [4]. Besides, the GMFI in assay [5] was 139000 GMFI; in assay [6] it was 901 GMFI; in assay [7], 14600 GMFI; in assay [8], 21600 GMFI; in assay [9], 1220 GMFI; in assay [10] it was 11500 GMFI. The GMFI in assay [11] amounted to 1320 GMFI; in [12], 1260 GMFI.

B3: 2C9 (reference antibody) (antibody, human IgG1, kappa, V domains shown)
VH: EVQLVESGGGLVKPGGSLRLSCAASGFTFSTNAMNWVRQAPGKGLERVARIRSKSNNYATYYADSVKDRFTISRDDSKNTLYLQMNSLKTEDTAVYYCVTMIPFAYWGQGTLVTVSS
VL: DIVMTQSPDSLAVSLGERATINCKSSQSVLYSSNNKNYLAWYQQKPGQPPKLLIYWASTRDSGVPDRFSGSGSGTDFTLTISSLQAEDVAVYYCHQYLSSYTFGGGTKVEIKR
notes: fucosylated
As for B3, the “ADCC Activity Average EC50, Human B Cells” value in assay [1] was 380 pM. This molecule had an EC50 in [3] of 65.6 pM. Besides, the GMFI was determined as 117000 GMFI in assay [5]; 1180 GMFI in [6]; 13300 GMFI in assay [7]; 22400 GMFI in assay [8]; 1780 GMFI in [9]; 11400 GMFI in [10]. In addition, the GMFI in [11] was found to be 1950 GMFI; in assay [12], 1970 GMFI.
